Assay [1] addresses glucose transporter 4 (GLUT4) on mouse red blood cells (mRBCs) or mRBC membranes (mouse) (UniProt P14142). Briefly: ELISA of insulin bound to mRBCs.
The target is the same in assay [2]. Description: ELISA of insulin released from Glu-Insulin loaded mRBCs at 37 C.
Assay [3] shares this target. Description: loading of 1x10^8 RBCs with 0.5 mg/mL Glu-Insulin overnight, ELISA. Background: ELISA stands for enzyme-linked immunosorbent assay.
Assay [4] deals with glucose transporter 1 (GLUT1) on human red blood cells (hRBCs) (human) (UniProt P11166). The description is as above.
Assay [5] deals with glucose transporter 4 (GLUT4) on mouse red blood cells (mRBCs) or mRBC membranes (mouse) (UniProt P14142). Description: flow cytometry (MFI) of Glu-FITC-insulin attached mRBCs treated with free glucose. (In general: In flow cytometry, cells or beads pass a laser one at a time.)

The source of these data is patent publication US20190015515A1.

Chain of UniProt P14142 (P14142 whole entry): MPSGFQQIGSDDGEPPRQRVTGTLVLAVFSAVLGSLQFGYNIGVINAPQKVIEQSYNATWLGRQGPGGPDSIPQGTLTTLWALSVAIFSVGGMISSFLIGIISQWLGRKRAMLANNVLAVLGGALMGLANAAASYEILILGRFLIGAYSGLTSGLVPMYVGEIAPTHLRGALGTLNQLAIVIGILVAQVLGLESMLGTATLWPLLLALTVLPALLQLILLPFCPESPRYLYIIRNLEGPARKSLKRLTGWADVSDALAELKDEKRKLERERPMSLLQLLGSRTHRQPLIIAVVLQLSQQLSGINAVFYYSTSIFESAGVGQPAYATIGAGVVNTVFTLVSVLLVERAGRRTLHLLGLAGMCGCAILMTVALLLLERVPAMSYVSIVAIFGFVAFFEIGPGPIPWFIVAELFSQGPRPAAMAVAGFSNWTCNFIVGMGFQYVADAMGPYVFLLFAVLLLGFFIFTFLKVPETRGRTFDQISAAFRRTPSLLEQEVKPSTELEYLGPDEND
Chain of UniProt P11166 (P11166 whole entry): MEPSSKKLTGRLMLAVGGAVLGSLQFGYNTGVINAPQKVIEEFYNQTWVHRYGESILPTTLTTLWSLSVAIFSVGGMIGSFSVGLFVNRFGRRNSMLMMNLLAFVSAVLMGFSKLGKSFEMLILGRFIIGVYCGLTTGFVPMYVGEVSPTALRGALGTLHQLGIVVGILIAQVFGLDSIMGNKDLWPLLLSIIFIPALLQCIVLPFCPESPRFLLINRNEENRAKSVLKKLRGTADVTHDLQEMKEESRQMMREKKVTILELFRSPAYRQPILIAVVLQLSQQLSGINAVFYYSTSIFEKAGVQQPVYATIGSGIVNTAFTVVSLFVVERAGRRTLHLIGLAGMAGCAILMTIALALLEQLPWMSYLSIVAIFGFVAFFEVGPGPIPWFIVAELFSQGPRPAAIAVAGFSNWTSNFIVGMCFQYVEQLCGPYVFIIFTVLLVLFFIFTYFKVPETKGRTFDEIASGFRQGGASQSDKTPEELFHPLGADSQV

Regarding “glucose-modified insulin (Glu-Insulin) (from UniProt P01308 90-110; P01308 25-54) (ligand)”, the loaded insulin per cell in assay [1] was less than 5e-13 g per cell. For the same substance, the percent released from mRBCs at 400 mg/dL glucose within 2 h in assay [2] turned out to be 50%. In addition, the percent of Glu-Insulin bound was 20% in assay [3] and 60% in assay [4]. The substance also came in with a decrease of insulin signal on mRBCs at 400 mg/dL glucose in assay [5] of 50%.
